Experimental data: patent publication US20250074980A1 (BRIGHAM AND WOMEN S HOSPITAL, published 2025)

T1: His-tagged CEACAM1 (human, UniProt P13688 35-428)
T1 construct: 45 kDa SPR analyte; also called CEACAM1-HIS; CEACAM1 analyte
T1 sequence: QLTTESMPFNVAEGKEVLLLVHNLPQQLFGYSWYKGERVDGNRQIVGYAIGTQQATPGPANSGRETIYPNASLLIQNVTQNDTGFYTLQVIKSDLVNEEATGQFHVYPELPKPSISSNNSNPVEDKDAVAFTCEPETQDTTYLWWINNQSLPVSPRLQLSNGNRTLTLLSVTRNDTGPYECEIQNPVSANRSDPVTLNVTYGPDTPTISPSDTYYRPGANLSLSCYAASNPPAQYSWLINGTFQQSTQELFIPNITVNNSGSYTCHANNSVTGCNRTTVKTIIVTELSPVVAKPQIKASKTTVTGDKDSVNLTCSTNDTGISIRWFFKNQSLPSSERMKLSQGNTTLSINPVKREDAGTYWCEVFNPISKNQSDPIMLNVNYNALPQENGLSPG


Target: T1, His-tagged CEACAM1
Assay: SPR single-cycle, supernatant IgG captured
Method: In order to assess the binding of the humanized, affinity matured reformatted lead IgGs, single-cycle kinetics analysis was performed on crude supernatants using a Biacore T200 running Biacore T200 Control Software V2.0.1 and Biacore T200 Evaluation Software V3.0. Antibodies were diluted in HBS-P+ to a final concentration of 0.5 μg/ml. At the start of each cycle, antibodies were loaded onto Fc2, Fc3 and Fc4 of the Protein A chip. IgGs were captured at a flow rate of 10 μl/min to give an immobilisation level (RL) of ˜100 RU (a level calculated to obtain a Rₘₐₓ of ˜50-150 RU once the analyte is bound). The surface was then allowed to stabilize. Single-cycle kinetics data was obtained with CEACAM1 as the analyte at a flow rate of 80 μl/min to minimize any potential mass transfer effects. Multiple repeats with the parent (VH1/Vκ8 S29A) antibody were performed to check the stability of the surface and analyte over the kinetic cycles. The signal from the reference channel Fc1 (no antibody) was subtracted from that of Fc2, Fc3 and Fc4 to correct for differences in non-specific binding to the reference surface. A three point, two-fold dilution range from 70 nM to 280 nM CEACAM1 without regeneration between each concentration was used. The signal from each antibody blank run (no CEACAM1) was subtracted to correct for differences in surface stability. The association phase for the three injections of increasing concentrations of CEACAM1 was monitored for 80 seconds each time and a single dissociation phase was measured for 150 seconds following the last injection of CEACAM1. Regeneration of the Protein A surface was conducted using two injections of 10 mM glycine-HCL pH 1.5 followed by a stabilization period of 250 seconds.

Binder	Kd [nM]	koff [s⁻¹]	kon [M⁻¹ s⁻¹]	relative KD to parent
CP08A08/Vκ8 S29A (antibody, IgG4, V domains shown, IgG4 (S241P), kappa) VH: EVQLLESGGGLVQPGGSLRLSCAASGFIFTNHGMSWVRQAPGKGLEWVATISSGGTYTYYPDSVKGRFTISRDNSKNTLYLQMNSLKAEDTAMYYCARHDFDYDAAWFAYWGQGTLVTVSS VL: EIVLTQSPATLSLSPGERATLSCRANSAVSYMYWYQQKPGQAPRPWIYLTSNRATGVPARFSGSGSGTDYTLTISSLEPEDFAVYYCQQWSSNPPTFGQGTKLEIK	1300	0.073	57000	0.4
CP08A06/Vκ8 S29A (antibody, IgG4, V domains shown, IgG4 (S241P), kappa) VH: EVQLLESGGGLVQPGGSLRLSCAASGYSFSSHGMSWVRQAPGKGLEWVATISSGGTYTYYPDSVKGRFTISRDNSKNTLYLQMNSLKAEDTAMYYCARHDFDYDAAWFAYWGQGTLVTVSS VL: EIVLTQSPATLSLSPGERATLSCRANSAVSYMYWYQQKPGQAPRPWIYLTSNRATGVPARFSGSGSGTDYTLTISSLEPEDFAVYYCQQWSSNPPTFGQGTKLEIK	440	0.075	170000	1.3
CP08B03/Vκ8 S29A (antibody, IgG4, V domains shown, IgG4 (S241P), kappa) VH: EVQLLESGGGLVQPGGSLRLSCAASGFTFTAHAISWVRQAPGKGLEWVATISSGGTYTYYPDSVKGRFTISRDNSKNTLYLQMNSLKAEDTAMYYCARHDFDYDAAWFAYWGQGTLVTVSS VL: EIVLTQSPATLSLSPGERATLSCRANSAVSYMYWYQQKPGQAPRPWIYLTSNRATGVPARFSGSGSGTDYTLTISSLEPEDFAVYYCQQWSSNPPTFGQGTKLEIK	360	0.069	200000	1.6
CP08B04/Vκ8 S29A (antibody, IgG4, V domains shown, IgG4 (S241P), kappa) VH: EVQLLESGGGLVQPGGSLRLSCAASGFIFSSHGMSWVRQAPGKGLEWVATISSGGTYTYYPDSVKGRFTISRDNSKNTLYLQMNSLKAEDTAMYYCARHDFDYFPAWFALWGQGTLVTVSS VL: EIVLTQSPATLSLSPGERATLSCRANSAVSYMYWYQQKPGQAPRPWIYLTSNRATGVPARFSGSGSGTDYTLTISSLEPEDFAVYYCQQWSSNPPTFGQGTKLEIK	410	0.049	120000	1.4
CP08F07/Vκ8 S29A (antibody, IgG4, V domains shown, IgG4 (S241P), kappa) VH: EVQLLESGGGLVQPGGSLRLSCAASGFTFTDHAISWVRQAPGKGLEWVATISSGGTYTYYPDSVKGRFTISRDNSKNTLYLQMNSLKAEDTAMYYCARHDFDYDAAWFAYWGQGTLVTVSS VL: EIVLTQSPATLSLSPGERATLSCRANSAVSYMYWYQQKPGQAPRPWIYLTSNRATGVPARFSGSGSGTDYTLTISSLEPEDFAVYYCQQWSSNPPTFGQGTKLEIK	470	0.081	170000	1.2
CP08C04/Vκ8 S29A (antibody, IgG4, V domains shown, IgG4 (S241P), kappa) VH: EVQLLESGGGLVQPGGSLRLSCAASGFTFSSHGMSWVRQAPGKGLEWVATISSGGTYTYYPDSVKGRFTISRDNSKNTLYLQMNSLKAEDTAMYYCARHDFDYDAAWFAYWGQGTLVTVSS VL: EIVLTQSPATLSLSPGERATLSCRANSAVSYMYWYQQKPGQAPRPWIYLTSNRATGVPARFSGSGSGTDYTLTISSLEPEDFAVYYCQQWSSNPPTFGQGTKLEIK	1200	0.26	220000	0.5

Second part, the binder after the results:

Kd [nM]	koff [s⁻¹]	kon [M⁻¹ s⁻¹]	relative KD to parent	Binder
430	0.039	93000	1.3	CP08A03/Vκ8 S29A (antibody, IgG4, V domains shown, IgG4 (S241P), kappa) VH: EVQLLESGGGLVQPGGSLRLSCAASGFIFNNHAISWVRQAPGKGLEWVATISSGGTYTYYPDSVKGRFTISRDNSKNTLYLQMNSLKAEDTAMYYCARHDFDYDAAWFAYWGQGTLVTVSS VL: EIVLTQSPATLSLSPGERATLSCRANSAVSYMYWYQQKPGQAPRPWIYLTSNRATGVPARFSGSGSGTDYTLTISSLEPEDFAVYYCQQWSSNPPTFGQGTKLEIK
610	0.059	96000	0.9	CP08B11/Vκ8 S29A (antibody, IgG4, V domains shown, IgG4 (S241P), kappa) VH: EVQLLESGGGLVQPGGSLRLSCAASGFTFTNHGMSWVRQAPGKGLEWVATISSGGTYTYYPDSVKGRFTISRDNSKNTLYLQMNSLKAEDTAMYYCARHDFDYDAAWFAYWGQGTLVTVSS VL: EIVLTQSPATLSLSPGERATLSCRANSAVSYMYWYQQKPGQAPRPWIYLTSNRATGVPARFSGSGSGTDYTLTISSLEPEDFAVYYCQQWSSNPPTFGQGTKLEIK
1200	0.1	82000	0.5	CP08C01/Vκ8 S29A (antibody, IgG4, V domains shown, IgG4 (S241P), kappa) VH: EVQLLESGGGLVQPGGSLRLSCAASGYSFSNHGMSWVRQAPGKGLEWVATISSGGTYTYYPDSVKGRFTISRDNSKNTLYLQMNSLKAEDTAMYYCARHDFDYDAAWFAYWGQGTLVTVSS VL: EIVLTQSPATLSLSPGERATLSCRANSAVSYMYWYQQKPGQAPRPWIYLTSNRATGVPARFSGSGSGTDYTLTISSLEPEDFAVYYCQQWSSNPPTFGQGTKLEIK
420	0.044	110000	1.3	CP08B06/Vκ8 S29A (antibody, IgG4, V domains shown, IgG4 (S241P), kappa) VH: EVQLLESGGGLVQPGGSLRLSCAASGFSFNSHAISWVRQAPGKGLEWVATISSGGTYTYYPDSVKGRFTISRDNSKNTLYLQMNSLKAEDTAMYYCARHDFDYDAAWFAYWGQGTLVTVSS VL: EIVLTQSPATLSLSPGERATLSCRANSAVSYMYWYQQKPGQAPRPWIYLTSNRATGVPARFSGSGSGTDYTLTISSLEPEDFAVYYCQQWSSNPPTFGQGTKLEIK
2000	0.17	86000	0.3	CP08D11/Vκ8 S29A (antibody, IgG4, V domains shown, IgG4 (S241P), kappa) VH: EVQLLESGGGLVQPGGSLRLSCAASGYSFSAHGMSWVRQAPGKGLEWVATISSGGTYTYYPDSVKGRFTISRDNSKNTLYLQMNSLKAEDTAMYYCARHDFDYDAAWFAYWGQGTLVTVSS VL: EIVLTQSPATLSLSPGERATLSCRANSAVSYMYWYQQKPGQAPRPWIYLTSNRATGVPARFSGSGSGTDYTLTISSLEPEDFAVYYCQQWSSNPPTFGQGTKLEIK
610	0.044	72000	0.9	CP08B01/Vκ8 S29A (antibody, IgG4, V domains shown, IgG4 (S241P), kappa) VH: EVQLLESGGGLVQPGGSLRLSCAASGFTFSAHAMSWVRQAPGKGLEWVATISSGGTYTYYPDSVKGRFTISRDNSKNTLYLQMNSLKAEDTAMYYCARHDFDYDAAWFAYWGQGTLVTVSS VL: EIVLTQSPATLSLSPGERATLSCRANSAVSYMYWYQQKPGQAPRPWIYLTSNRATGVPARFSGSGSGTDYTLTISSLEPEDFAVYYCQQWSSNPPTFGQGTKLEIK
300	0.043	140000	1.9	CP08D01/Vκ8 S29A (antibody, IgG4, V domains shown, IgG4 (S241P), kappa) VH: EVQLLESGGGLVQPGGSLRLSCAASGFTFNAHGMSWVRQAPGKGLEWVATISSGGTYTYYPDSVKGRFTISRDNSKNTLYLQMNSLKAEDTAMYYCARHDFDYDAAWFAYWGQGTLVTVSS VL: EIVLTQSPATLSLSPGERATLSCRANSAVSYMYWYQQKPGQAPRPWIYLTSNRATGVPARFSGSGSGTDYTLTISSLEPEDFAVYYCQQWSSNPPTFGQGTKLEIK
